# T1: KSRP (UniProt Q92945 1-711)
# T1 sequence: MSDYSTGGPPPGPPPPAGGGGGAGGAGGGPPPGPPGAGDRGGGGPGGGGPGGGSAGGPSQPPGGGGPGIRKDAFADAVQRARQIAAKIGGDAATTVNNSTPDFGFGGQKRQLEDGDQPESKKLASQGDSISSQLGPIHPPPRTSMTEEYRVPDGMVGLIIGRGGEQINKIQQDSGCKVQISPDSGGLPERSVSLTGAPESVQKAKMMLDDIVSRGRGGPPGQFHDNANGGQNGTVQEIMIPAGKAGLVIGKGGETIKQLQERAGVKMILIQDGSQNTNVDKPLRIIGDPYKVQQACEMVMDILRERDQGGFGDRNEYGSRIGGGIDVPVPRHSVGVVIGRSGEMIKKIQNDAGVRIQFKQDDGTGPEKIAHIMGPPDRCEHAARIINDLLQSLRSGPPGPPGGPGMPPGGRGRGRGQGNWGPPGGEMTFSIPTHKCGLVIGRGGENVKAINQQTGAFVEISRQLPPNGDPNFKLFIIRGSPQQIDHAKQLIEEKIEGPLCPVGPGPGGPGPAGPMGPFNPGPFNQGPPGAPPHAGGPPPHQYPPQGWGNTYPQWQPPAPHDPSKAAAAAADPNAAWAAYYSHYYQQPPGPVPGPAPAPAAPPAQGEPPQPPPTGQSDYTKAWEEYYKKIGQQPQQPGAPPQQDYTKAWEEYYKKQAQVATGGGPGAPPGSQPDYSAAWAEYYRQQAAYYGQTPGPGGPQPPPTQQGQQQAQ
# Tests used:
# hnRNP A1 UP1 fragment = hnRNP A1 UP1 fragment (UniProt P09651 1-196); experiment: competition
# hnRNP A1 UP1 fragment, sequence (P09651 1-196): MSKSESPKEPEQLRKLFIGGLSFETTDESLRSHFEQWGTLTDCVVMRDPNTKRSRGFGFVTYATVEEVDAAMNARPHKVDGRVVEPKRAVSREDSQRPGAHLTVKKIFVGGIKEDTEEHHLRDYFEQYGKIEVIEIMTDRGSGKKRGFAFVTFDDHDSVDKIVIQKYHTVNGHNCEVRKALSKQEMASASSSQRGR
# KSRP = molecular target: T1, KSRP; experiment: competition
binder,measurement,setting,value
GUUGUAUAGUUUUAGGGUCACACCCACCACUGGGAGAUAACUAUACAAUC (structured_RNA) [let-7a-1 loop],binding result,hnRNP A1 UP1 fragment,binds
same,binding result,KSRP,binds
